How the values were obtained:
[1] = target: Small Hepatitis B surface Antigen (S-HBsAg), HBV subtype not stated (Hepatitis B virus); assay: cell-based or functional assay
[2] = target: Small Hepatitis B surface Antigen (S-HBsAg), HBV subtype ayw (Hepatitis B virus, subtype ayw, UniProt P03138 1-226); assay: cell-based or functional assay
Chain of Small Hepatitis B surface Antigen (S-HBsAg), HBV subtype ayw (P03138 164-389): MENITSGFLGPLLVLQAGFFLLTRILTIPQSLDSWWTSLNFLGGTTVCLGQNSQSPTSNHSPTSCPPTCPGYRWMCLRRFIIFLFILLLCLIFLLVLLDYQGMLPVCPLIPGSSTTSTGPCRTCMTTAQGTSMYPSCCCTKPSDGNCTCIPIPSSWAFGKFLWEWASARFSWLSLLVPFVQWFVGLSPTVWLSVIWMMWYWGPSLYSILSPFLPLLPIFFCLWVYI

B1: bivalent, soluble H015 (antibody, V domains shown)
VH: QVQLVESGGGVAQPGRSLRLSCAASGFSFSRHGMHWVRQAPGKGLEWVAGIWFDGTNDYYTDSVKGRFTISRDNSRSTLYLDINSLRAEDTAVYYCAREDPHLLIATLDLWGLGTLVTVSS
VL: DIQVTQSPSSLSAFVGDRVTITCRASQGLTSFINWYQQKPGRAPKLLISSASSLQRGVPSRFTASGSGTHFTLTISSLQPEDFATYYCQQSYGTPALAFGGGTKVDIK
IC50, in vitro HDV neutralization in primary human hepatocytes (HDV RNA) [1]: 0.113 nM | IC50, in vitro HBV neutralization assay, HepG2-NTCP cells, ayw subtype [2]: 0.0836 nM
